B1: proMMP‐9 from CDG patients: serum proMMP‐9 of PMM2‐CDG patients, defective N‐glycosylation (protein, UniProt P14780 20-707, looked up)
pro-form: APRQRQSTLVLFPGDLRTNLTDRQLAEEYLYRYGYTRVAEMRGESKSLGPALLLLQKQLSLPETGELDSATLKAMRTPRCGVPDLGRFQTFEGDLKWHHHNITYWIQNYSEDLPRAVIDDAFARAFALWSAVTPLTFTRVYSRDADIVIQFGVAEHGDGYPFDGKDGLLAHAFPPGPGIQGDAHFDDDELWSLGKGVVVPTRFGNADGAACHFPFIFEGRSYSACTTDGRSDGLPWCSTTANYDTDDRFGFCPSERLYTQDGNADGKPCQFPFIFQGQSYSACTTDGRSDGYRWCATTANYDRDKLFGFCPTRADSTVMGGNSAGELCVFPFTFLGKEYSTCTSEGRGDGRLWCATTSNFDSDKKWGFCPDQGYSLFLVAAHEFGHALGLDHSSVPEALMYPMYRFTEGPPLHKDDVNGIRHLYGPRPEPEPRPPTTTTPQPTAPPTVCPTGPPTVHPSERPTAGPTGPPSAGPTGPPTAGPSTATTVPLSPVDDACNVNIFDAIAEIGNQLYLFKDGKYWRFSEGRGSRPQGPFLIADKWPALPRKLDSVFEERLSKKLFFFSGRQVWVYTGASVLGPRRLDKLGLGADVAQVTGALRSGRGKMLLFSGRRLWRFDVKAQMVDPRSASEVDRMFPGVPLDTHDVFQYREKAYFCQDRFYWRVSSRSELNQVDQVGYVTYDILQCPED
modifications: pro-form
B2: recombinant proMMP‐9: recombinant full‐length human proMMP‐9 expressed in Sf‐9 insect cells (protein, UniProt P14780 20-707, looked up)
pro-form: B1 pro-form
modifications: pro-form

Legend:
cdMMP‐3 [1] = target: T1, cdMMP‐3 (Homo sapiens, UniProt P08254); assay: Gelatin‐Sepharose bound serum proMMP‐9 activation by cdMMP‐3, zymography; assay type: biochemical; settings: 5 μl serum, 0-14.2 nM cdMMP‐3, 3 h, 37 °C, CDG patients n = 5, healthy controls n = 7, Fig. 8
cdMMP‐3 [2] = target: T1, cdMMP‐3; assay: Stepwise activation of proMMP‐9 glycoforms by cdMMP‐3, gelatin zymography; assay type: biochemical; settings: with galectin‐3 (1/10), Fig. 9B

T1 sequence (P08254 100-272 limits assumed): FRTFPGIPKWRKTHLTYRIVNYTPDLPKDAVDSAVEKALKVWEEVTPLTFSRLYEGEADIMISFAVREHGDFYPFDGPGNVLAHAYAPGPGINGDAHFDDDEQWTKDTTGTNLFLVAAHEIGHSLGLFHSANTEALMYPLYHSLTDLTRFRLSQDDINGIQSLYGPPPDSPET

Molecule	activation of serum proMMP‐9 by MMP‐3 (cdMMP‐3 [1])	conversion into active form on overnight incubation with cdMMP‐3 and galectin‐3 (cdMMP‐3 [2])
B1	significantly faster activation	
B2		fully converted into its active form

Source: article PMC7379967 (The Febs Journal, 2018)
